According to article PMC4182348 (PLoS ONE, 2014):

Columns and labels:
Conditions in all cases: one partner purified
[1] = target: T1, tetanus toxoid (Clostridium tetani, strain  …, UniProt P04958); experiment: ELISA
T1 sequence (P04958 1-457, chain 1 of 2): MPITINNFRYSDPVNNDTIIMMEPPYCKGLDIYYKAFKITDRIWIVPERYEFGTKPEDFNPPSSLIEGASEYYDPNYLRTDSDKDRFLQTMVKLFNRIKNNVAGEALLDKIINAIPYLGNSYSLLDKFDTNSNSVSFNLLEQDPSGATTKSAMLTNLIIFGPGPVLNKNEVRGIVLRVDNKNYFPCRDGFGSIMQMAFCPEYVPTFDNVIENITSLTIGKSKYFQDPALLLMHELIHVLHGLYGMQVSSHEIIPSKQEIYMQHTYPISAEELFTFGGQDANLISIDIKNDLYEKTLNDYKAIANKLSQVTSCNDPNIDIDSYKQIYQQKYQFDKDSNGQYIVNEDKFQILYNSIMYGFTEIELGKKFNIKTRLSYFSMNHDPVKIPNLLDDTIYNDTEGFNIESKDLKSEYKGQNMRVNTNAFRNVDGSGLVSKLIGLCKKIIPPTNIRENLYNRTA
T1 sequence (P04958 458-1315, chain 2 of 2): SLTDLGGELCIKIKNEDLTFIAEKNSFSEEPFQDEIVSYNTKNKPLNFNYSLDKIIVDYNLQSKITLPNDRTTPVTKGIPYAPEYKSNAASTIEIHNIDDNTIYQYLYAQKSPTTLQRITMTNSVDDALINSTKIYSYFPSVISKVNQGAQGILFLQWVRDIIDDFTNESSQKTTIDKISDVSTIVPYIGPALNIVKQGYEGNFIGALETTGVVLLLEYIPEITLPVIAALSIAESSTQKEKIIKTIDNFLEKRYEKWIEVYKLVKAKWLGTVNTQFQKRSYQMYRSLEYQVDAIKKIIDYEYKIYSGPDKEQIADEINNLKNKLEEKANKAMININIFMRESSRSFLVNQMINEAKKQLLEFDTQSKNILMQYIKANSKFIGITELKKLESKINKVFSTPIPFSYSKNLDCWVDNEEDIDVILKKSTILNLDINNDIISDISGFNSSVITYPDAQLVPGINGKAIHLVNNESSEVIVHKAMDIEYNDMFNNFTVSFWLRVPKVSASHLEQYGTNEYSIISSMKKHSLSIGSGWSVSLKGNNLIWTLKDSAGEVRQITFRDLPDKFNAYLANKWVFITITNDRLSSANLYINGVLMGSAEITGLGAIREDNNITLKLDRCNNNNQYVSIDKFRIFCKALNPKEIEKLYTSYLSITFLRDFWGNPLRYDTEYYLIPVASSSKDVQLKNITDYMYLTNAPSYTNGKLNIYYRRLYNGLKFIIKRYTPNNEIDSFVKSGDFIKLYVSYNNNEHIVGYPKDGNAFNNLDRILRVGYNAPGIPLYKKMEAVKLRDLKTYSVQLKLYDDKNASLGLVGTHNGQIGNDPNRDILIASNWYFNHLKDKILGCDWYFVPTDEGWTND

[2] = target: tetanus toxoid (Clostridium tetani, strain  …, UniProt P04958); experiment: SPR
Target sequence in this assay (P04958 whole entry): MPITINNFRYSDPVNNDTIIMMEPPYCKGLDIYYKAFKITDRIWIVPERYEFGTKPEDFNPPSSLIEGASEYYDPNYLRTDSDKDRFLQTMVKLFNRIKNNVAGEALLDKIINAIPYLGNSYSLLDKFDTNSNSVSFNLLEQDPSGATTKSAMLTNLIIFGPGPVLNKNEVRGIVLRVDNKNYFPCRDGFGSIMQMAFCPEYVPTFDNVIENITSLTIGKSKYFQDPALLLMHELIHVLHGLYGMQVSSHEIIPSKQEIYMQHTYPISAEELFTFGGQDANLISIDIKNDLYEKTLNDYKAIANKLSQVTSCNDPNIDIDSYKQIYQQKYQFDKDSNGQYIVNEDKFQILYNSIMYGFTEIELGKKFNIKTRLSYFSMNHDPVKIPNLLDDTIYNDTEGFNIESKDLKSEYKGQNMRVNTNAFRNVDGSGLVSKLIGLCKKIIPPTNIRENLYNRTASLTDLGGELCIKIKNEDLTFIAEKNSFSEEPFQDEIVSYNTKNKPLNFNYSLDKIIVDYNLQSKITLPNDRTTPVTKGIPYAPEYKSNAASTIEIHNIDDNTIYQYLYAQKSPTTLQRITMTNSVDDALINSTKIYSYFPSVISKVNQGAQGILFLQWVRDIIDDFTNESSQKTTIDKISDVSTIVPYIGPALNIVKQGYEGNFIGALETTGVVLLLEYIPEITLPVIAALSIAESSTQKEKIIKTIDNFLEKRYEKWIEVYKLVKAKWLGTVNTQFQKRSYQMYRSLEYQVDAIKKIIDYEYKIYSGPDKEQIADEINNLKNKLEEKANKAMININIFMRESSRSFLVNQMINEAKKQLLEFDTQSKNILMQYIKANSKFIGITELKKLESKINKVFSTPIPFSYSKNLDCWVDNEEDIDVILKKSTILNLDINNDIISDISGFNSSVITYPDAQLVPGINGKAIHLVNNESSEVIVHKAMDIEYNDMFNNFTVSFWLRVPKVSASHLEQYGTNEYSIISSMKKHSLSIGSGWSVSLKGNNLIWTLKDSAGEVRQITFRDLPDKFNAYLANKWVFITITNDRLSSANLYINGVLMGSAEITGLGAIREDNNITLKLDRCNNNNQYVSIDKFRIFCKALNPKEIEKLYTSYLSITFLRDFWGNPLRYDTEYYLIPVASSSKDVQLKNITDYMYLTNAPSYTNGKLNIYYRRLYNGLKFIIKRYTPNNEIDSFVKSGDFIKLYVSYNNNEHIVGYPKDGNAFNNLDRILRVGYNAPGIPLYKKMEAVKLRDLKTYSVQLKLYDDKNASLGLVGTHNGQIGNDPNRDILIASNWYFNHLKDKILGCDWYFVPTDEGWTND

[3] = target: T1, tetanus toxoid; experiment: SPR; remark: listed apart in the source

B1: anti-TT mAb of hybridoma P4T29115 (antibody, V domains shown)
VH: EVKLVESGGGLVKPGGSLKLSCAASGITFSNYAMSWVRQTPEKRLEWVATISSGGSYIYYPDSVKGRFTISRDNAKNTLYLQMSSLRSEDTAVYFCARLGYDGVALDYWGQGTSVTVSS
VL: ASLGDRVSISCRASQDIRNYLNWYQQRPDGTVKLLIYYTSRLHSGVPSRFSGSGSGTDYSLTISNLEQEDIATYFCQQGNTFPWTFGGGTKLEIK
B1: binds [1].

B2: TT-specific Fab D5O 94 from the phage display library (Fab, V domains shown)
VH: LVKPGASVKIPCKASGYTFTDYNIDWVKQSHGKSLEWIGDINPNNGGTIYNQKFKDKATLTVDKSSSTAYMELRSLTSEDTAVYYCARDFYYGRYFDYWGQGTTLTVSS
VL: TMAASPGEKITITCSATSSISSNYLHWYQQKPGFSPKLLIYRTSNLASGVPARFSGSGSGTSYSLTIGTMEAEDVATYYCQQGSNIPTFGSGTKLELK
In the case of B2, the Kd [2] is reported as 4.8 nM, the koff [2] is reported as 0.00037 s⁻¹ and the kon [2] is reported as 78000 M⁻¹ s⁻¹.

B3: phage display isolate S546 (Fab, V domains shown)
VH: LVAPSQSLSITCTVSGFSLTSYGVHWVRQPPGKGLEWLGVIWPGGSTNYNSALMSRLSISKDNSKSQVFLKMNSLQTDDTAMYYCARDFQYGNYFDYWGQGTTLTVSS
VL: TMAASPGEKITITCSASSSISSNYLHWYQQKPGFSPKLLIYRTSNLASGVPTRFSGSGSGTSYSLTIGTMEAEDVATYYCQQGSSISTFGAGTKLELK
B3: binds [1].

B4: TT-specific Fab S10 from the phage display library (Fab, V domains shown)
VH: LVAPSQSLSITCTVSGFSLTDYGVNWVRQPPGKGLEWLGMIWGDGSTDYNSALKSRLSISKDNSKSQVFLKMNSLQTDDTARYFCVRTFHYGNYFDYWGQGTTLTVSS
VL: TMAASPGEKITITCSASSSISSNYLHWYQQKPGFSPKLLIYRTSNLASGVPARFSGSGSGTSYSLTIGTMEAEDVATYYCQQGSSIPLTFGAGTKLELK
Binder B4 has a Kd [2] of 12 nM, a koff [2] of 0.00032 s⁻¹ and a kon [2] of 26000 M⁻¹ s⁻¹.

B5: anti-TT mAb of hybridoma 24 (antibody, V domains shown)
VH: VQLQQTGPGLVQPSQSLSITCTVSAFSLTNYGIHWVRQSPGKGLEWLGVIWTGGSTDYNAPFISRLSISKDNSKSQVFFKMNSLQANDTAIYYCVRDGYRVMDYWGQGTSVTVSS
VL: LSASVGETVTITCRASGNIHNYLAWYQQKQGKSPQLLVYNAKTLTDGVPSRFSGSGSGTQHSLKINSLQPEDFGSYYCQHFWTIPWTFGGGTKLEIK
B5 was tested, and the Kd [3] was 1.9 nM, the koff [3] was 0.00016 s⁻¹ and the kon [3] was 86000 M⁻¹ s⁻¹.

B6: anti-TT mAb of hybridoma 14 (antibody, V domains shown)
VH: VQLQESGPGLVAPSQSLSITCTVSGFSLTSYGVHWVRQPPGKGLEWLGVIWPGGSTNYNSALMSRLSISQDNSKSQVFLKMNSLQIDDTAMYHCARDFQYGNYFDYWGQGTSLTVSS
VL: MPASPGEKITITCSASSSISSNYLHWYQQKPGFSPKLLIYRTSNLASGVPARFSGSGSGTSYSLTVGTMEAEDVATYYCQQGTSIPTFGAGTKLELK
With B6 the Kd [3] was 3.1 nM, the koff [3] was 0.00029 s⁻¹ and the kon [3] was 94000 M⁻¹ s⁻¹.

B7: phage display isolate S917 (Fab, V domains shown)
VH: LVKPGGSLKLSCAVSGFNFSNYAMSWVRQTPEKRLEWVATISSGGSYIYYPDSVKGRFTISRDNAKNTLYLQMSSLRSEDTAMYYCARQDRYGFALDYWGQGTSVTVSS
VL: SLSASLGDRVTISCRASQDINNYLNWYQQKPDGTIRLLIYYTSRLHSGVPSRFSGSGSGTDYSLTITNLEQEDFATYFCQQGNTLPWAFGGGTKLEIK
B7: binds [1].
